± gives the standard deviation of the averaged measurements.

The chains are these.
B1: library; a variant is named by its letters at X, in order (parent)
chain: MNIQIGELAKRTACPVVTIRFYEQEGLLPPPGRSRGNFRLYGEEHVERLQFIRHCRSLDMPLSDVRTLLSYRKRPDQDCGEVXMLLDEHIRQVESRIGALLELKHHLVELREACSGARPAQSCGILQXLSXCVCXTRGTTAHXSD

In data set [1] the parent is B1. Nature of the data set: sfGFP reporter fluorescence (15 h) (µM FITC); higher = higher leak. The settings on record: library round: Round 2; ligand: none. A digest of the protocol: (§1)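 Readout was endpoint sfGFP fluorescence, converted to µM FITC through standard curves. Reactions were 1 μL of BL21 Star (DE3) PANOx-SP extract with pPbrR-sfGFP reporter, 30 μg/mL GamS and linear PbrR templates normalized to 5 nM, containing 1 µM lead chloride, 30 µM zinc acetate or no metal. Incubation lasted 15 hr at 30 °C, with up to three biological replicates.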

Data set [2] covers variants of B1. In words: sfGFP reporter fluorescence (15 h) (µM FITC); higher = stronger transcriptional activation. The settings on record: library round: Round 2. A digest of the protocol:
as §1

On to MNIQIGELAKRTACPVVTIRFYEQEGLLPPPGRSRGNFRLYGEEHVERLQFIRHCRSLDMNLSKVRTLLSYRKRPDQDCGEVNMLLDEHIRQVESRIGALLELVHHLVELREACSGARPAQSCGILQALSDCVCDTRGTTAHPSD [NADDP P61N D64K K104V], for which the values for the sfGFP reporter fluorescence in data set [1], in data set [2] (ligand: 1 µM Pb) and in data set [2] (ligand: 30 µM Zn) were 0.917 ± 0.079, 1.61 ± 0.16 and 3.1 ± 0.27, respectively.
As to MNIQIGELAKRTACPVVTIRFYEQEGLLPPPGRSRGNFRLYGEEHVERLQFIRHCRSLDMPLSDVRTLLSYRKRPDQDCGEVTMLLDEHIRQVESRIGALLELKHHLVELREACSGARPAASCGILQGLSCCVCATRGTTAHPSD [TGCAP Q121A], the sfGFP reporter fluorescence was 0.0482 ± 0.0011 in data set [1], 0.0978 ± 0.0067 in data set [2] (ligand: 1 µM Pb) and 0.156 ± 0.0046 in data set [2] (ligand: 30 µM Zn).
The matching figures for MNIQIGELAKRTACPVVTIRFYEQEGLLPPPGRSRGNFRLYGEEHVERLQFIRHCRSLDMPLSDVRTLLSYRKRPDQDCGEVTMLLDEHIRQVESRIGALLELKHHIVELRAACSGARPAQSCGILQGLSDCVCDTRGTTAHPSD [TGDDP L107I E112A]: 0.0475 ± 0.0007, 0.131 ± 0.0047 and 0.511 ± 0.039.
In the same order, the values of MNIQIGELAKRTACPVVTIRFYEQEGLLPPPGRSRGNFRLYGEEHVERLQFIRHCRSLDMPLSDVRTLLSYRKRPDQDCGEVTMLLDEHLRQVESRIGALLELKHHLVELREACSGARPAQSCGILQGLSNCVCDTRGTTAHPSD [TGNDP I90L] are 0.0469 ± 0.0017, 0.0573 ± 0.0011 and 0.192 ± 0.014.
The matching figures for MNIQIGELAKRTACPVVTIRFYEQEGLLPPPGRSRGNFRLYGEEHVERLQFIRHCRSLDMPLSKVRTLLSYRKRPDQDCGEVTMLLDEHIRQVESRIGALLELVHHLVELREACSGARPAQSCGILQILSDCVCDTRGTTAHPSD [TIDDP D64K K104V]: 0.156 ± 0.022, 0.472 ± 0.075 and 2.62 ± 0.29.
Regarding MNIQIGELAKRTACPVVTIRFYEQEGLLPPPGRSRGNFRLYGEEHVERLQFIRHCRSLDMPLSDVRTLLSYRKRPDQDCGEVSMLLDEHIRQVESRIGALLELKHHLVELREACSGARPAQSCGILQALSDCVCATRGTTAHPSD [SADAP], the sfGFP reporter fluorescence is 0.0791 ± 0.013 in data set [1], 0.19 ± 0.019 in data set [2] (ligand: 1 µM Pb) and 2.33 ± 0.44 in data set [2] (ligand: 30 µM Zn).
As for MNIQIGELAKRTACPVVTIRFYEQEGLLPPPGRSRGNFRLYGEEHVERLQFIRHCRSLDMPLSDVRTLLSYRKRPDQDCGEVNMLLDEHIRQVESRIGALLELKHHLVLLREACSGARPAQSCGILQHLSCCVCDTRGTTAHLSD [NHCDL E109L], the sfGFP reporter fluorescence in data set [1] turned out to be 0.0622 ± 0.0037; in data set [2] (ligand: 1 µM Pb), 0.0798 ± 0.0072; in data set [2] (ligand: 30 µM Zn) it was 0.512 ± 0.062.
On to MNIQIGELAKRTACPVVTIRFYEQEGLLPPPGRSRGNFRLYGEEHVERLQFIRHCRSLDMPLSDVRTLLSYRKRPDQDCGEVNMLLDEHIRQVESRIGALLELKHHCVELREACSGARPAQSCAILQILSDCVCATRGTTAHKSD [NIDAK L107C G124A], for which the results for the sfGFP reporter fluorescence in data set [1], in data set [2] (ligand: 1 µM Pb) and in data set [2] (ligand: 30 µM Zn) were 0.814 ± 0.086, 2.25 ± 0.053 and 3.09 ± 0.3, respectively.
In the same order, the values of MNIQIGELAKRTACPVVTIRFYEQEGLLPPPGRSRGNFRLYGEEHVERLQFIRHCRSLDMELSKVRTLLSYRKRPDQDCGEVNMLLDEHIRQVESRIGALLELKHHLVELRHACSGARPAQSCGILQGLSDCVCDTRGTTAHPSD [NGDDP P61E D64K E112H] are 0.157 ± 0.027, 0.377 ± 0.021 and 1.95 ± 0.22.
On to MNIQIGELAKRTACPVVTIRFYEQEGLLPPPGRSRGNFRLYGEEHVERLQFIRHCRSLDFNLSKVRTLLSYRKRPDQDCGEVNMLLDEHIRQVESRIGALLELVHHLVELREACSGARPAQSCGILQGLSDCVCDTRGTTAHPSD [NGDDP M60F P61N D64K K104V], for which the sfGFP reporter fluorescence in data set [1] was determined as 0.395 ± 0.16; in data set [2] (ligand: 1 µM Pb), 0.744 ± 0.16; in data set [2] (ligand: 30 µM Zn), 2.04 ± 0.33.
In the case of MNIQIGELAKRTACPVVTIRFYEQEGLLPPPGRSRGNFRLYGEEHVERLQFIRHCRSLDLNLSDVRTLLSYRKRPDQDCGEVNMLLDEHIRQVESRIGALLELVHHCVELREACSGARPAQSCGILQILSDCVCDTRGTTAHPSD [NIDDP M60L P61N K104V L107C], the sfGFP reporter fluorescence is 0.315 ± 0.042 in data set [1], 1.19 ± 0.096 in data set [2] (ligand: 1 µM Pb) and 2.16 ± 0.42 in data set [2] (ligand: 30 µM Zn).
MNIQIGELAKRTACPVVTIRFYEQEGLLPPPGRSRGNFRLYGEEHVERLQFIRHCRSLDMPLSDVRTLLSYRKRPDQDCGEVNMLLDEHIRQVESRIGALLELKHHLVELREACSGARPAQSCGILQGISDCVCATRGTTAAPSD [NGDAP L129I H142A]: the sfGFP reporter fluorescence in data set [1] came to 0.0458 ± 0.0024; in data set [2] (ligand: 1 µM Pb), 0.0491 ± 0.0012; in data set [2] (ligand: 30 µM Zn) it was 0.302 ± 0.012.
The matching figures for MNIQIGELAKRTACPVVTIRFYEQEGLLPPPGRSRGNFRLYGEEHVERLQFIRHCRSLDMPLSDVRTLLSYRKRPDQDCGEVNMLLDEHIRQVESRIGALLELKHHLVELREACSGARPAQSCGILQHLSECVCDTRGTTAHWSD [NHEDW]: 0.0563 ± 0.0014, 0.119 ± 0.014 and 0.842 ± 0.068.
For the variant MNIQIGELAKRTACPVVTIRFYEQEGLLPPPGRSRGNFRLYGEEHVERLQFIRHCRSLDLNLSKVRTLLSYRKRPDQDCGEVNMLLDEHIRQVESRIGALLELVHHLVELREACSGARPAQSCGILQGLSCCVCDTRGTTAHPSD [NGCDP M60L P61N D64K K104V], the sfGFP reporter fluorescence came out at 0.179 ± 0.016 in data set [1], 0.384 ± 0.049 in data set [2] (ligand: 1 µM Pb) and 1.39 ± 0.088 in data set [2] (ligand: 30 µM Zn).

For the origin of these results see the supplement of paper PMC12783771.
